According to publication PMC6669903 (Neuron, 2019):

Test system: Tiam1/CaMKII complex
Type: cell-based
Details: bath application (AP5, KN-93) or cotransfection (CaMKIIN)

B1: CaMKIIN: endogenous CaMKII inhibitor protein, cotransfected (protein)
chain: MSEILPYGEDKMGRFGADPEGSDLSFSCRLQDTNSFFAGNQAKRPPKLGQIGRAKRVVIEDDRIDDVLKGMGEKPPSGV
  effect on Tiam1/CaMKII interaction after sLTP induction: blocked
